Measured values as given in the supplement of paper PMC7125110.
± gives the standard error. Fewer inactive variants are shown than the library holds.

B1: glmS ribozyme (parent)
chain: AUAAAAGCGCCAGAACUACAGAAAUGUAGUUGACGAGGAGGAGGUUUAUCGAAUUUUCGGCGGAUGCCUCCAAA

What was measured:
Conditions in all cases: with glucosamine-6-phosphate
glucosamine-6-phosphate [1] = variants of: B1; test: self-cleavage kobs at 640 uM GlcN6P; higher = faster cleavage; RNA array
How it was run: (§1)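 Barcoded ribozyme variants, transcribed in situ by E. coli RNA polymerase on sequenced MiSeq chips, were followed via a hybridised Cy3 probe at 37 °C. Glucosamine-6-phosphate ranged from 40 μM to 10 mM in HEPES/KCl/Mg(OAc)2 buffer. kobs came from decay fits to per-tile medians, and kcat and KM from weighted Michaelis–Menten fits.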

glucosamine-6-phosphate [2] = variants of: B1; test: self-cleavage kobs at 2500 uM GlcN6P; higher = faster cleavage; RNA array
How it was run: as §1

glucosamine-6-phosphate [3] = variants of: B1; test: self-cleavage kobs at 160 uM GlcN6P; higher = faster cleavage; RNA array
How it was run: as §1

glucosamine-6-phosphate [4] = variants of: B1; test: self-cleavage kobs at 10000 uM GlcN6P; higher = faster cleavage; RNA array
How it was run: as §1

Variant	self-cleavage kobs at 640 uM GlcN6P (glucosamine-6-phosphate [1]) [s⁻¹]	self-cleavage kobs at 2500 uM GlcN6P (glucosamine-6-phosphate [2]) [s⁻¹]	self-cleavage kobs at 160 uM GlcN6P (glucosamine-6-phosphate [3]) [s⁻¹]	self-cleavage kobs at 10000 uM GlcN6P (glucosamine-6-phosphate [4]) [s⁻¹]
A6U C8A C11U C50G	0.000402 ± 0.00018	0.000125 ± 4.7e-05	–	–
A6U A12G A14U	< 1e-05	–	–	–
U45C A53U U69C	0.000489 ± 0.00012	0.000752 ± 0.00022	9.96e-05 ± 2.7e-05	–
G40C U46A A64G C70A	–	–	< 1e-05	–
C50G U65C	0.000255 ± 0.0001	4.37e-05 ± 2.1e-05	4.48e-05 ± 1.6e-05	–
A42U A52G C68G	–	< 1e-05	< 1e-05	–
G60C C61G	< 1e-05	< 1e-05	< 1e-05	–
U57A G62C	< 1e-05	–	< 1e-05	< 1e-05
A6C A14C U31C A36G A48G	< 1e-05	–	–	< 1e-05
G43C C50A C58U	< 1e-05	< 1e-05	< 1e-05	–
A6C C8G U54C	< 1e-05	–	–	–
A6G C10U U54G	< 1e-05	< 1e-05	–	< 1e-05
A52G C67U C71G	7.65e-05 ± 1.9e-05	0.000162 ± 5.9e-05	4.58e-05 ± 2.3e-05	–
U46G A53U U65G	0.000379 ± 9.9e-05	0.000976 ± 0.00018	4.57e-05 ± 1.6e-05	–
A39U G59U	< 1e-05	–	< 1e-05	3.61e-05 ± 1.4e-05
U45G C61U G63A U65C	< 1e-05	< 1e-05	< 1e-05	–
A42C A64G C68U	< 1e-05	< 1e-05	< 1e-05	–
A42U U49A	< 1e-05	< 1e-05	< 1e-05	< 1e-05
G41A U47A G62C	< 1e-05	< 1e-05	< 1e-05	–
A6U G29C A48U	< 1e-05	–	–	–
C50A G66A C70G	0.000243 ± 6.1e-05	0.000169 ± 4.8e-05	5.52e-05 ± 2.4e-05	–
C50G U54A G63A	0.000109 ± 2.9e-05	8.83e-05 ± 1.8e-05	0.000158 ± 4.4e-05	–
A6G G13C G32A G66U	< 1e-05	< 1e-05	–	–
A6U C16U C61U C71U	< 1e-05	< 1e-05	–	–
